Measured values as given in patent US20230242653A1 (TENEOBIO, published 2023).

T1: human IL-2Rα (Sino Biological) (human, UniProt P01589 22-213, limits assumed)
T1 construct: also called IL2RA; IL-2RA
T1 sequence: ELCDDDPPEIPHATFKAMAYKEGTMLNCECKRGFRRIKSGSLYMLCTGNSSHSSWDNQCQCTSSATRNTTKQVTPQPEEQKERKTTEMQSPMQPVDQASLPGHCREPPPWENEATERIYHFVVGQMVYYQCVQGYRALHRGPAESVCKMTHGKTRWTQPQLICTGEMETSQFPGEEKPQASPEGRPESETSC

T2: IL-4R (Sino Biological) (UniProt P24394 26-232)
T2 construct: also called IL-4Ra
T2 sequence (looked up): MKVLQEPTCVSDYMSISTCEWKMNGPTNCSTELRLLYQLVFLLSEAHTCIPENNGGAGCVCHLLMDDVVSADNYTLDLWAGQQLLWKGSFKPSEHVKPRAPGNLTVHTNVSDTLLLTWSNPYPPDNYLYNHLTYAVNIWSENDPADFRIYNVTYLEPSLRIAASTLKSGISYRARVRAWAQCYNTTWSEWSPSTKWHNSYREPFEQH

T3: IL-7R (Sino Biological) (UniProt P16871 21-239)
T3 sequence (looked up): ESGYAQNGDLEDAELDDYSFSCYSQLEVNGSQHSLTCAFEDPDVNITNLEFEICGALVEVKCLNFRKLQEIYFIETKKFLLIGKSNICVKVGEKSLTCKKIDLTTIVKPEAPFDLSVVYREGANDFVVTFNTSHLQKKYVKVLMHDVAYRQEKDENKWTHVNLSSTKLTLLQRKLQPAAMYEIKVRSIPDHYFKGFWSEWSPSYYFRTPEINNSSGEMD

T4: IL-9R (R&D Systems) (UniProt Q01113 41-270, limits assumed)
T4 sequence (looked up): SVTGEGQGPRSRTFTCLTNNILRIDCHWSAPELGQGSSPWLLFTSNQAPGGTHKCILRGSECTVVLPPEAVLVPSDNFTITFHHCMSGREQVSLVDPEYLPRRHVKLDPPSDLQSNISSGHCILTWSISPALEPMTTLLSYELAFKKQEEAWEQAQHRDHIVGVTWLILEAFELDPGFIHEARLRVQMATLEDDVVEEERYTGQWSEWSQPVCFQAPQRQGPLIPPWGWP

T5: human IL-2Rβγ receptor (IL-2RB / IL-2RG) on human T-cells (human, UniProt P14784 27-551; P31785 23-369)
T5 construct: also called IL2RB/IL2RG dimeric receptor complex
T5 sequence 1: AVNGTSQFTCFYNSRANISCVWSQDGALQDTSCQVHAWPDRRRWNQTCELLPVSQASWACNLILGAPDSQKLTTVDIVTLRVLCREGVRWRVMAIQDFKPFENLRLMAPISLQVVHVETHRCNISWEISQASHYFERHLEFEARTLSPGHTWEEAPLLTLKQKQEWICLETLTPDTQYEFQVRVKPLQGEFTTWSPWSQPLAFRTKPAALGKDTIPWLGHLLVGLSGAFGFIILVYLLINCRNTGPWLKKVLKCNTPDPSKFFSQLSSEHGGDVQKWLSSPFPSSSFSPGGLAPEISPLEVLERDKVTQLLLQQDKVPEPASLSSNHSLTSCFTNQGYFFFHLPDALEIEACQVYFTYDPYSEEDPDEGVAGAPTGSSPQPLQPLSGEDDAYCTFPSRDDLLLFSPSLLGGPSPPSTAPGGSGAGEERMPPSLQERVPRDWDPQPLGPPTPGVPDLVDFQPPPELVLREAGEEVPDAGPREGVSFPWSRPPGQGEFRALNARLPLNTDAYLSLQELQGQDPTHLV
T5 sequence 2: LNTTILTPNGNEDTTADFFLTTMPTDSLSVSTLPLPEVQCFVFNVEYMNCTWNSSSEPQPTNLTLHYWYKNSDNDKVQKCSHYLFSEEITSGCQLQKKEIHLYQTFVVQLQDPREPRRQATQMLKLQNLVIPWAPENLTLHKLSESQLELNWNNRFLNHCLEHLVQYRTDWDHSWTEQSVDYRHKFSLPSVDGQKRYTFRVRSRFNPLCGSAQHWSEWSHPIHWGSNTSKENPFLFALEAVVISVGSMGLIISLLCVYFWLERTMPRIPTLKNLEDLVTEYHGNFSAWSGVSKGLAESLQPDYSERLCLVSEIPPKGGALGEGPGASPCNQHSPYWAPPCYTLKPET


Tests used:
IL-21R (Sino Biological) = IL-21R (Sino Biological) (UniProt Q9HBE5 20-232); experiment: Octet BLI off-rate analysis, antibody on AHC sensors
Description: (§1) All off-rate measurements were performed on an Octet Qk384 instrument (ForteBio), in 96-well microplates at 25° C. using anti-human IgG Fc capture (AHC, 18-5005) sensors with a shake speed of 1000 rpm. For off-rate determination, the antibodies were loaded on the AHC sensors at 5 µg/mL. Following a short baseline in kinetics buffer (0.02% Tween20, 0.1% BSA, 0.05% sodium azide, 1X PBS). Offrate measurements were done for the following: human IL-2Rβ (AcroBiosystems), human IL- 2Ry (Sino Biological), cynomolgus IL-2Rβ (Sino Biological), cynomolgus IL-2Rγ (expressed and purified in house using ExpiCHO expression system followed by Ni-NTA His-tag purification), mouse IL-2Rγ (Sino Biological), mouse IL-2Rβ (Sino Biological), human IL-2Rα (Sino Biological), IL-4R (Sino Biological), IL-7R (Sino Biological), IL-9R (R&D Systems) and IL-21R (Sino Biological). The following antibodies were used as positive controls to verify target binding and reagent quality: anti-human IL-9R (R&D Systems), anti-human IL-21R (R&D Systems), anti-human IL-7R (R&D Systems) and anti-human IL-4Ra (R&D Systems). The loaded sensors were then submerged in wells containing antigen at 100 nM concentration for association step. Dissociation was monitored in kinetics buffer. The capture surfaces were regenerated for 60 s. ForteBio data analysis software was used to fit the data to a 1:1 binding model to extract an association rate and dissociation rate.

[1] = molecular target: T1, human IL-2Rα (Sino Biological); experiment: as above
Description: as §1

IL-4R (Sino Biological) = molecular target: T2, IL-4R (Sino Biological); experiment: as above
Description: as §1

IL-7R (Sino Biological) = molecular target: T3, IL-7R (Sino Biological); experiment: as above
Description: as §1

IL-9R (R&D Systems) = molecular target: T4, IL-9R (R&D Systems); experiment: as above
Description: as §1

[2] = molecular target: T5, human IL-2Rβγ receptor (IL-2RB / …); experiment: flow cytometry, human CD4+ T-cells, anti-human IgG-PE detection, gMFI as fold over secondary-only background
Description: (§2) All washes and dilutions of cells, antibodies, and reagents were performed using flow buffer (1X PBS, 1% BSA, 0.1% NaN3, pH 7.4). Staining was performed in a round-bottom 96-well plate (Corning) seeded at 100,000 cells/well and all incubations were performed at 4° C. or on ice. […] The cells were washed twice with 200 µL flow buffer. The cells were then incubated for 30 minutes with detection antibody (Goat F(ab′)2 Anti-Human IgG-PE, Southern Biotech) at 0.625 µg/mL in flow buffer. Following 2 more washes, the cells were resuspended in a final volume of 150 µL of flow buffer. The cells were analyzed on a BD FACSCelesta or a Guava easyCyte 8-HT flow cytometer. At least 3000 events were collected, and PE geometric mean fluorescence intensity was plotted as a fold over background (cells incubated with secondary detection antibody only). In some secondary screens involving human or cynomolgus PBMCs, an additional CD4 antibody (BioLegend) and/or CD8 antibody (BioLegend) was included to further characterize cell binding.

[3] = molecular target: cynomolgus IL-2Rβγ receptor (IL-2RB / IL-2RG) on cynomolgus T-cells (cynomolgus, UniProt Q38J85 27-551); experiment: flow cytometry, cynomolgus CD8+ T-cells, anti-human IgG-PE detection, gMFI as fold over secondary-only background
Description: as §2

[4] = molecular target: T5, human IL-2Rβγ receptor (IL-2RB / …); experiment: flow cytometry, human CD8+ T-cells, anti-human IgG-PE detection, gMFI as fold over secondary-only background
Description: as §2

IL-21R (Sino Biological), sequence (Q9HBE5 20-232 limits assumed): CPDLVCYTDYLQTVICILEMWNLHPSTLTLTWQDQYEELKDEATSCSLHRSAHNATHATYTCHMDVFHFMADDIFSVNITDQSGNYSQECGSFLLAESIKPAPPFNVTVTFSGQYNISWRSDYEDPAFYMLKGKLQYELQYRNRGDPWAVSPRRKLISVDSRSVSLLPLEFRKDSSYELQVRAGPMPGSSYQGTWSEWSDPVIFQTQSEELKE
cynomolgus IL-2Rβγ receptor (IL-2RB / IL-2RG) on cynomolgus T-cells, sequence (Q38J85 27-551): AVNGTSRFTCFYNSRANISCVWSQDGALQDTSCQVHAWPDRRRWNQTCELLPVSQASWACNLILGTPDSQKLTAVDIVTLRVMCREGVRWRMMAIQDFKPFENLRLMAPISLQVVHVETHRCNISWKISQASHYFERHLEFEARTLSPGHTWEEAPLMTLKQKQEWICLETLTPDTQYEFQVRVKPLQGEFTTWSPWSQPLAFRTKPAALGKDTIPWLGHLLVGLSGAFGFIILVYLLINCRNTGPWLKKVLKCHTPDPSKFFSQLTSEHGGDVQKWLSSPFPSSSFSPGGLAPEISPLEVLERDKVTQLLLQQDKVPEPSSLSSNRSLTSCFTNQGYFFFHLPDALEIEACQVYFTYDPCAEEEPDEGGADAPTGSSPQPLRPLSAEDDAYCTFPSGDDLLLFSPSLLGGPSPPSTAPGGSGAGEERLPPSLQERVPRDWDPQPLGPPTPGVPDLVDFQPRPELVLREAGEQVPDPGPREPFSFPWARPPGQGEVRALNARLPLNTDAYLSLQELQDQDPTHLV

| binding result (IL-21R (Sino Biological)) | binding result [1] | binding result (IL-4R (Sino Biological)) | binding result (IL-7R (Sino Biological)) | binding result (IL-9R (R&D Systems)) | EC50 (read off the curve) [2] | EC50 (read off the curve) [3] | EC50 (read off the curve) [4] | Binder |
| --- | --- | --- | --- | --- | --- | --- | --- | --- |
| no binding (tested: 100 nM antigen) | no binding (tested: 100 nM antigen) | no binding (tested: 100 nM antigen) | no binding (tested: 100 nM antigen) | no binding (tested: 100 nM antigen) | ~5 nM | – | – | IL2RB_F09G**IL2RG_F16B (bispecific antibody, human IgG4, V domains shown, Bispecific heavy chain-only UniAb on silenced, stabilized human IgG4 Fc without CH1, knobs-into-holes; also called BsAb-2; not shown: C-terminal His-tag on the knob chain) V domain 1: QVQLQESGPGLVKSSETLSLTCTVSGGSISSSDWWSWVRQPPGKGLEWIGEIDHSGSTNYNPSLMSRVTISVDKSKNQFSLKLSSVTAADTAVYFCARGSWELTDAFDIRGQGTLVTVSS V domain 2: QVQLVESGGGLVKPGGSLRLSCAASGFTFSDYYMSWIRQAPGKGLEWVSYISSSGSTIYYADSVKGRFTISRDNAKNSLYLQMNSLRAEDTAVYYCARGDAVSITGDYRGQGTLVTVSS |
| no binding (tested: 100 nM antigen) | no binding (tested: 100 nM antigen) | no binding (tested: 100 nM antigen) | no binding (tested: 100 nM antigen) | no binding (tested: 100 nM antigen) | – | – | – | IL2RB_F18E**IL2RG_F16A (bispecific antibody, human IgG4, V domains shown, Bispecific heavy chain-only UniAb on silenced, stabilized human IgG4 Fc without CH1, knobs-into-holes; also called BsAb-6; not shown: C-terminal His-tag on the knob chain) V domain 1: QVQLVESGGGVVQPGRSLRLSCAASGFTFSSYGMHWVRQAPGKEREWVAVISYDGSNKYYTDSVKGRFTISRDNSKNTLYLEMNSLRAEDTAVYYCARDLDYDVLTGDPVGGFDIWGQGTLVTVSS V domain 2: QVQLVESGGGLVKPGGSLRLSCAASGFTFSDYYMSWIRQAPGKGLEWVSSISSSGDTIYYADSVQGRFTLSRDNAENSLFLQMNSLRAEDTAVYYCARGDAVSITGDYRGQGTLVTVSS |
| no binding (tested: 100 nM antigen) | no binding (tested: 100 nM antigen) | no binding (tested: 100 nM antigen) | no binding (tested: 100 nM antigen) | no binding (tested: 100 nM antigen) | – | – | – | IL2RB_F09G**IL2RG_F18A (bispecific antibody, human IgG4, V domains shown, Bispecific heavy chain-only UniAb on silenced, stabilized human IgG4 Fc without CH1, knobs-into-holes; also called BsAb-4; not shown: C-terminal His-tag on the knob chain) V domain 1: QVQLQESGPGLVKSSETLSLTCTVSGGSISSSDWWSWVRQPPGKGLEWIGEIDHSGSTNYNPSLMSRVTISVDKSKNQFSLKLSSVTAADTAVYFCARGSWELTDAFDIRGQGTLVTVSS V domain 2: QVQLVESGGDLVKPGGSLRLSCAASGFTFSDYYMSWLRQAPGKELEWVSHISSSGTTTYYADSVEGRFTITRDNAKNSLYLQMNSLRAEDTAVYYCARGAAVAPGFDSRGQGTLVTVSS |
| no binding (tested: 100 nM antigen) | no binding (tested: 100 nM antigen) | no binding (tested: 100 nM antigen) | no binding (tested: 100 nM antigen) | no binding (tested: 100 nM antigen) | – | ~5 nM | – | IL2RB_F09K**IL2RG_F16B (bispecific antibody, human IgG4, V domains shown, Bispecific heavy chain-only UniAb on silenced, stabilized human IgG4 Fc without CH1, knobs-into-holes; also called BsAb-5; not shown: C-terminal His-tag on the knob chain) V domain 1: QVQLQESSPGLVKPSETLSLTCTVSGGSISSSNWWSWVRQPPGKGLEWIGEISHSGSTNYNPSLKSRVTISVDKSKNQFSLRLSSVTAADTAVYFCGRGSWELTDAFDIRGQGTLVTVSS V domain 2: QVQLVESGGGLVKPGGSLRLSCAASGFTFSDYYMSWIRQAPGKGLEWVSYISSSGSTIYYADSVKGRFTISRDNAKNSLYLQMNSLRAEDTAVYYCARGDAVSITGDYRGQGTLVTVSS |
| no binding (tested: 100 nM antigen) | no binding (tested: 100 nM antigen) | no binding (tested: 100 nM antigen) | no binding (tested: 100 nM antigen) | no binding (tested: 100 nM antigen) | ~5 nM | – | – | IL2RB_F09C**IL2RG_F16A (bispecific antibody, human IgG4, V domains shown, Bispecific heavy chain-only UniAb on silenced, stabilized human IgG4 Fc without CH1, knobs-into-holes; also called BsAb-1; not shown: C-terminal His-tag on the knob chain) V domain 1: QVQLQESGPGLVKPSGTLSLTCAVSGGSISSSDWWSWVRQPPGKGLEWIGEIDHSGSTNYNPSLMSRVTISVDKSKNQFSLKLSSVTAADTAVYFCGRGSWELSDAFDIRGQGTLVTVSS V domain 2: QVQLVESGGGLVKPGGSLRLSCAASGFTFSDYYMSWIRQAPGKGLEWVSSISSSGDTIYYADSVQGRFTLSRDNAENSLFLQMNSLRAEDTAVYYCARGDAVSITGDYRGQGTLVTVSS |
| no binding (tested: 100 nM antigen) | no binding (tested: 100 nM antigen) | no binding (tested: 100 nM antigen) | no binding (tested: 100 nM antigen) | no binding (tested: 100 nM antigen) | ~6 nM | – | ~6 nM | IL2RB_F09G**IL2RG_F16C (bispecific antibody, human IgG4, V domains shown, Bispecific heavy chain-only UniAb on silenced, stabilized human IgG4 Fc without CH1, knobs-into-holes; also called BsAb-3; not shown: C-terminal His-tag on the knob chain) V domain 1: QVQLQESGPGLVKSSETLSLTCTVSGGSISSSDWWSWVRQPPGKGLEWIGEIDHSGSTNYNPSLMSRVTISVDKSKNQFSLKLSSVTAADTAVYFCARGSWELTDAFDIRGQGTLVTVSS V domain 2: QVQLVESGGGLVKPGGSLRLSCAASGFTFNDYYMSWIRQAPGKGLEWVSHISSSGSTIYYADSVKGRFTVSRDNANNSLYLQMHSLRAEDTAVYYCARGDAVSITGDYRGQGTLVTVSS |
